In US20260209317A1 (US Dept. of Health and Human Services, published 2026):

Target: T1, SARS-CoV-2 WA-1 RBD protein (SARS-CoV-2, UniProt P0DTC2 319-541)
T1 construct: domain: RBD
Experiment: ELISA, plate coated with WA1 RBD

B1: B2-269.1 (antibody, V domains shown)
VH: EVQLVESGGGLVQPGGSLRLSCAASGITVSSNYMSWVRQPPGKGLDWVSLIFSGGSTYYADSVKGRFTISRDNSKNTLYLQMNSLRAEDTAVYYCARVGVAVAGTDYDIWGQGTMVTVSS
VL: DIQMTQSPSSLSASVGDRVTITCQASQDINKYLNWYQQKPGKAPKLLIYDASNLETGVPSRFSGSGSGTDFTFTISSLQPEDIATYYCLHYENLPLSFGGGTKVEIK
- EC50 (read off the curve): ~4 ng/mL
